What was measured:
Assay in all cases: IP/MS, LZTR1 R810W-FLAG, U87
SBNO2 = biological target: T1, SBNO2 (human, UniProt Q9Y2G9 1-1366, limits assumed)
T1 sequence (looked up): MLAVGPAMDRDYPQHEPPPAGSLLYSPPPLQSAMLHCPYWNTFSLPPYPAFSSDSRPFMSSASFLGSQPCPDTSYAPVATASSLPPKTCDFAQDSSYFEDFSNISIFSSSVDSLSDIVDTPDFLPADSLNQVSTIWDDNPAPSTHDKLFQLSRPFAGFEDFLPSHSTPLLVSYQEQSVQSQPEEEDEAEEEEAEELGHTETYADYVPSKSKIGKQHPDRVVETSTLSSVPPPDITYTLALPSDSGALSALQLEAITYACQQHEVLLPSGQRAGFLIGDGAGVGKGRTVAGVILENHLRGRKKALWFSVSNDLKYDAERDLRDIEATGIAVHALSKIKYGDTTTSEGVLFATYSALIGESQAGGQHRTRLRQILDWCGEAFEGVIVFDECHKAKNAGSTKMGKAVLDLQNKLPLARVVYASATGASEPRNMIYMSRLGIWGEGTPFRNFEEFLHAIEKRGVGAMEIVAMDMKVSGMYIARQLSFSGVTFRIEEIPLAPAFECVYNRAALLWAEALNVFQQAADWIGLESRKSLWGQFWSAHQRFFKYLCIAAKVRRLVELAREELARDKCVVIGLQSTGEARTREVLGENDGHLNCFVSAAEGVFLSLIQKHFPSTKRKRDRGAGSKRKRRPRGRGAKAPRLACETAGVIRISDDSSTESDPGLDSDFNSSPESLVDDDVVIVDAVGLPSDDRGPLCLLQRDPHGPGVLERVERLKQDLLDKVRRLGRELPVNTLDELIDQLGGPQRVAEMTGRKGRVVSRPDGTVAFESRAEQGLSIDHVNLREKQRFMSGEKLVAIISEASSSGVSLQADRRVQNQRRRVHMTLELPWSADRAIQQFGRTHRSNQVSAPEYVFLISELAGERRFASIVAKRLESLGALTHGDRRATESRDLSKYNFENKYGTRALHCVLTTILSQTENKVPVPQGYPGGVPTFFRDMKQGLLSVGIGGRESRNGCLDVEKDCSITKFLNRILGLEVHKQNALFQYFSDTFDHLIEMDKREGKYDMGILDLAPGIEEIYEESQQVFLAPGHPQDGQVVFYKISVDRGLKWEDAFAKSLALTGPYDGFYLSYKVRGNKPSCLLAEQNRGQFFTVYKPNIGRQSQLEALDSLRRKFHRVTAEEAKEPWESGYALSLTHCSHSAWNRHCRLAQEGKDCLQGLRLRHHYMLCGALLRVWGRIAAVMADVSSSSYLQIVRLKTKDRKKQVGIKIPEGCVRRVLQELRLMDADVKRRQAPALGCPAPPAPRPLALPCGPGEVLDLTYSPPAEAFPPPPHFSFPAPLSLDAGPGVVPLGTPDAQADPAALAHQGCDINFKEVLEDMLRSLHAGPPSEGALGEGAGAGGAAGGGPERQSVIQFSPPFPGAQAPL
Outline: (§1)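 Gel slices were reduced with 5 mM DTT, alkylated with 11 mM IAA and digested overnight at 37° C. with trypsin. Peptides were analysed on an Orbitrap Fusion Tribrid by LC-MS/MS.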

MTR = MTR (human, UniProt Q99707 1-1265, limits assumed)
Outline: as §1

MYO10 = MYO10 (human, UniProt Q9HD67 1-2058, limits assumed)
Outline: as §1

Measured: binding result

Chain of MTR (Q99707 whole entry): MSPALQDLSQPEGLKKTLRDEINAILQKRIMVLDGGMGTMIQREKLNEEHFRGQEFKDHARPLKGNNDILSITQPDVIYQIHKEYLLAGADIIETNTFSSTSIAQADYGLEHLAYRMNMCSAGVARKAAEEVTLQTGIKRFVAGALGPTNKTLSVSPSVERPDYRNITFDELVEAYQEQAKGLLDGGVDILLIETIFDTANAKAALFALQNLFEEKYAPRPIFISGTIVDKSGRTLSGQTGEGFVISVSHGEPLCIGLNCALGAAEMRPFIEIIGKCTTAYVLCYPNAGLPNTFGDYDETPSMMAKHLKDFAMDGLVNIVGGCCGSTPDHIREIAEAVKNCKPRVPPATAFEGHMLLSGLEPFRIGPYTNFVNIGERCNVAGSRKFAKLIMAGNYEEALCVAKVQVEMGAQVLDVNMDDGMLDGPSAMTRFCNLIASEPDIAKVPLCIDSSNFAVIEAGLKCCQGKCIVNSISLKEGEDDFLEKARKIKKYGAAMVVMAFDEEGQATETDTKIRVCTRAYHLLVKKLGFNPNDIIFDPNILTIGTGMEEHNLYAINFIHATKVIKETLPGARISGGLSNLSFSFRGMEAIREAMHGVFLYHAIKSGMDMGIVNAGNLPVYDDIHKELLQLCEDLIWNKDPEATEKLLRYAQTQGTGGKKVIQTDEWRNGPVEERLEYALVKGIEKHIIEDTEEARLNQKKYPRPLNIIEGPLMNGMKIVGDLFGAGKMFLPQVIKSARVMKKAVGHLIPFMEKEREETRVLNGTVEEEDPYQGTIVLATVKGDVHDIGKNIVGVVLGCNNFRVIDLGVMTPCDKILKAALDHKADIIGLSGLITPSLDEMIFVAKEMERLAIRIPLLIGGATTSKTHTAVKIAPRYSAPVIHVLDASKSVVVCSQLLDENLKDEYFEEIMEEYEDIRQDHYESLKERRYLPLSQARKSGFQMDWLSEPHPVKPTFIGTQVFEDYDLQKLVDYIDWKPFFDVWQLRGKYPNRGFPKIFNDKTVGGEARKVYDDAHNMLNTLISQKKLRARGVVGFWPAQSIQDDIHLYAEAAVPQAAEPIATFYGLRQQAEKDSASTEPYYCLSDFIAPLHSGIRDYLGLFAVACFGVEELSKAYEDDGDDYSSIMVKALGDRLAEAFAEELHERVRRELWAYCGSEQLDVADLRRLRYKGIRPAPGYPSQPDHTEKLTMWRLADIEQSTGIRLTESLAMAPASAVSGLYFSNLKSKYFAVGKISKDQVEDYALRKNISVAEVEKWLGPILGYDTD
Chain of MYO10 (Q9HD67 whole entry): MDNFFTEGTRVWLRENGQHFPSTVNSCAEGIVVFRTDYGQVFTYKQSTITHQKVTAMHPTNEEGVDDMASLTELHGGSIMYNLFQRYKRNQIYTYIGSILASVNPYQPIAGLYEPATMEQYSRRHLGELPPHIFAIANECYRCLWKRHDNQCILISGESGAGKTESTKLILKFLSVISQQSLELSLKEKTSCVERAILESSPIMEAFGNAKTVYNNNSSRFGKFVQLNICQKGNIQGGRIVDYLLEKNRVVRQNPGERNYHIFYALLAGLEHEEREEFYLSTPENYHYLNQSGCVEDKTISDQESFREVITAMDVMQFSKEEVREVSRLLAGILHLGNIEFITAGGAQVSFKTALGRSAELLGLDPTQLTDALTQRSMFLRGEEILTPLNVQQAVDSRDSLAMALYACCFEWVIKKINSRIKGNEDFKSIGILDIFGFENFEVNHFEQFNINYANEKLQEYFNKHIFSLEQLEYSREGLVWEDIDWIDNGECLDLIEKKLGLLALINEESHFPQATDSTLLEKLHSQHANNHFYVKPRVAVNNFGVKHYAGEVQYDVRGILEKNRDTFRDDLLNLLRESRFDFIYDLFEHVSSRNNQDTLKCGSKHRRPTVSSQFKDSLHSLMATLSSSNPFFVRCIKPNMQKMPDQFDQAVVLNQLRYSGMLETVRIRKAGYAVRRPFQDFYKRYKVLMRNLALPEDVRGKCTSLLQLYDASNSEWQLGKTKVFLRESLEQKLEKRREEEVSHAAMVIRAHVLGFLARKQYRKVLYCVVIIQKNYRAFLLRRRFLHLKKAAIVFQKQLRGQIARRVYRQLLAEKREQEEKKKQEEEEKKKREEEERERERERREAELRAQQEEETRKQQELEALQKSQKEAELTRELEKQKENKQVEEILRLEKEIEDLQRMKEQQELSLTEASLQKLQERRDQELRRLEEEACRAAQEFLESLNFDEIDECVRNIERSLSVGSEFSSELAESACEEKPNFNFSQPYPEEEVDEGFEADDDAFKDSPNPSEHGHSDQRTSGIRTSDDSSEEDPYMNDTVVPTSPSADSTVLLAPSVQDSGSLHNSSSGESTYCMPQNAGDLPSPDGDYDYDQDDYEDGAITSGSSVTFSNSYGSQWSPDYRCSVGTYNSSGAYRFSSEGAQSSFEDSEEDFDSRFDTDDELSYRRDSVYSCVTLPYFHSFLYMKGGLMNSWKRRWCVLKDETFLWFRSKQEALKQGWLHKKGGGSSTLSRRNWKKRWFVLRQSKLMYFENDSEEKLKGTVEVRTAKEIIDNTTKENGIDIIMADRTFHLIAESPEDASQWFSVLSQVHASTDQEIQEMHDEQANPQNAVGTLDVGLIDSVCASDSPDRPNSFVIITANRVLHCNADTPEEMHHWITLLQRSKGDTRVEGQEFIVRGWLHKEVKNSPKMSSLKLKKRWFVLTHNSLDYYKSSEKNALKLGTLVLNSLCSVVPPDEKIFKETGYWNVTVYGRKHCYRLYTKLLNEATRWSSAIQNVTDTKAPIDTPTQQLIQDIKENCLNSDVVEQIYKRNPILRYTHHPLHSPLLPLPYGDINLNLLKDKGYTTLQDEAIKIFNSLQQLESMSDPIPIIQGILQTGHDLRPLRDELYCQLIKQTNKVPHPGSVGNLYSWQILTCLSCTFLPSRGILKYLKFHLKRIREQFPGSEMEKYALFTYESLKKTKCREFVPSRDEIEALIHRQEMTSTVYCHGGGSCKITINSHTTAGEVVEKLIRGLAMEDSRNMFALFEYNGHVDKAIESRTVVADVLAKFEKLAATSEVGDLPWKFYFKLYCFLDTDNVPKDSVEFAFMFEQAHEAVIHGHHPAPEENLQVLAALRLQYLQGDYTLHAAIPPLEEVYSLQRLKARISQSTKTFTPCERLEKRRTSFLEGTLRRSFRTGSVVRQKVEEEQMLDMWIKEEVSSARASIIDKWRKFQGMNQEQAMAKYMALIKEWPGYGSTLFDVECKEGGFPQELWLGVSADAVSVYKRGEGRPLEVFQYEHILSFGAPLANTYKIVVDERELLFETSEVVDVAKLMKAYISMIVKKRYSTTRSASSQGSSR

B1: LZTR1 R810W-FLAG (other, human, UniProt Q8N653 1-840, looked up)
chain: MAGPGSTGGQIGAAALAGGARSKVAPSVDFDHSCSDSVEYLTLNFGPFETVHRWRRLPPCDEFVGARRSKHTVVAYKDAIYVFGGDNGKTMLNDLLRFDVKDCSWCRAFTTGTPPAPRYHHSAVVYGSSMFVFGGYTGDIYSNSNLKNKNDLFEYKFATGQWTEWKIEGRLPVARSAHGATVYSDKLWIFAGYDGNARLNDMWTIGLQDRELTCWEEVAQSGEIPPSCCNFPVAVCRDKMFVFSGQSGAKITNNLFQFEFKDKTWTRIPTEHLLRGSPPPPQRRYGHTMVAFDRHLYVFGGAADNTLPNELHCYDVDFQTWEVVQPSSDSEVGGAEVPERACASEEVPTLTYEERVGFKKSRDVFGLDFGTTSAKQPTQPASELPSGRLFHAAAVISDAMYIFGGTVDNNIRSGEMYRFQFSCYPKCTLHEDYGRLWESRQFCDVEFVLGEKEECVQGHVAIVTARSRWLRRKITQARERLAQKLEQEAAPVPREAPGVAAGGARPPLLHVAIREAEARPFEVLMQFLYTDKIKYPRKGHVEDVLLIMDVYKLALSFQLCRLEQLCRQYIEASVDLQNVLVVCESAARLQLSQLKEHCLNFVVKESHFNQVIMMKEFERLSSPLIVEIVRRKQQPPPRTPLDQPVDIGTSLIQDMKAYLEGAGAEFCDITLLLDGHPRPAHKAILAARSSYFEAMFRSFMPEDGQVNISIGEMVPSRQAFESMLRYIYYGEVNMPPEDSLYLFAAPYYYGFYNNRLQAYCKQNLEMNVTVQNVLQILEAADKTQALDMKRHCLHIIVHQFTKVSKLPTLWSLSQQLLLDIIDSLASHISDKQCAELGADI
notes: Stably expressed in U87 cells by lentivirus; also called LZTR1-FLAG-R810W; LZTR1 RW; not shown: FLAG tag
binds: all assays above

Source: patent US20250262210A1 (TRUSTEES OF COLUMBIA UNIVERSITY IN THE CITY OF NEW YORK, published 2025)
